Experimental data from US20220251562.

Key:
[1] = test system: CD3 complex on Jurkat cells (Homo sapiens); assay: flow; settings: apparent
[2] = biological target: CD3 epsilon/gamma heterodimer (Homo sapiens) (UniProt P07766+P09693); assay: SPR; settings: steady state
[3] = biological target: CD3 epsilon/delta heterodimer (Macaca fascicularis) (UniProt Q95LI5+Q95LI8); assay: SPR; settings: steady state
[4] = biological target: CD3 epsilon/delta heterodimer (Homo sapiens) (UniProt P07766+P04234); assay: SPR; settings: kinetic
CD3 epsilon/delta heterodimer (Homo sapiens), sequence (P07766 23-126, stated change not applied, chain 1 of 2): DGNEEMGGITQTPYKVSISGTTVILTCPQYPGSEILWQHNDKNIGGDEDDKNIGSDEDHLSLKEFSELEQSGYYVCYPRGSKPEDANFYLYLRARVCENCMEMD
CD3 epsilon/delta heterodimer (Homo sapiens), sequence (P04234 22-105, stated change not applied, chain 2 of 2): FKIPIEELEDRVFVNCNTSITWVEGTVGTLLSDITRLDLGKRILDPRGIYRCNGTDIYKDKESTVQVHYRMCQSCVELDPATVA

[5] = biological target: T1, CD3 epsilon/delta heterodimer (Mus musculus) (UniProt P22646+P04235); assay: SPR; settings: steady state
T1 sequence 1: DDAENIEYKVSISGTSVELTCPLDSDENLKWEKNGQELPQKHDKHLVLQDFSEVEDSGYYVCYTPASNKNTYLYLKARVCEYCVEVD
T1 sequence 2: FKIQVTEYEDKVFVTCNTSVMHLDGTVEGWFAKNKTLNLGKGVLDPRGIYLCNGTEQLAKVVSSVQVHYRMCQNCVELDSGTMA

CD3 epsilon/gamma heterodimer (Homo sapiens), sequence (P07766 23-126, chain 1 of 2): as the sequence (P07766 23-126, stated change not applied, chain 1 of 2) above
CD3 epsilon/gamma heterodimer (Homo sapiens), sequence (P09693 23-116, chain 2 of 2): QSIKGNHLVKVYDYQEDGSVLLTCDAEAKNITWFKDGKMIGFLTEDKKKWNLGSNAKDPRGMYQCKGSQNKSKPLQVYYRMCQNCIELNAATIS
CD3 epsilon/delta heterodimer (Macaca fascicularis), sequence (Q95LI5 22-117, stated change not applied, chain 1 of 2): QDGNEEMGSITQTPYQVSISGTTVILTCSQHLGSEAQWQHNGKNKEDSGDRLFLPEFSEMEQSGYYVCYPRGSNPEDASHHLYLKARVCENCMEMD
CD3 epsilon/delta heterodimer (Macaca fascicularis), sequence (Q95LI8 22-105, stated change not applied, chain 2 of 2): as the sequence (P04234 22-105, stated change not applied, chain 2 of 2) above, with I5V, N15K, I20V, S32T, D33N, I34N, T64A, S74N, V83L counted along it

With GGGNTTGGCNNNGGGNCTGGC [CELTIC_core] the Kd ([1]; negligible signal on Ramos) was over 50 nM, the Kd ([2]; kinetic 845 pM (Table 8)) was 427 nM and the Kd [3] was 1210 nM. It also gave a Kd [4] of 1 nM and a Kd [5] of 591000 nM.

In the case of GGGTTTGGCACCGGGCTGGC [CELTIC_core_12], the Kd ([2]; _ is abasic C3 spacer at position 16, kinetic 1.15 pM (Table 8)) is reported as 98 nM and the Kd ([4]; _ is abasic C3 spacer at position 16) is reported as 1.5 nM.

GGGTTTGGCACGGGCCTGGC [CELTIC_core_24] showed a Kd ([2]; _ is abasic C3 spacer at position 11, 5'-HEG, kinetic 67 pM (Table 8)) of 218 nM and a Kd ([4]; _ is abasic C3 spacer at position 11, 5'-HEG) of 0.041 nM.

GGGTTTGGCACGGGCCTGGC [CELTIC_core_24t] gave a Kd ([2]; _ is abasic C3 spacer at position 11, 5'-HEG, 3'-3' dT, kinetic 238 pM (Table 8)) of 233 nM and a Kd ([4]; _ is abasic C3 spacer at position 11, 5'-HEG, 3'-3' dT) of 0.006 nM.

With “GGGTTTGGCACGGGCTGGC [CELTIC_core_42 5'-tetrazine]” the Kd ([1]; _ is abasic C3 spacer (positions 11 and 16), HEG, 5'-tetrazine-PEG5, specificity retained vs Ramos) was under 25 nM.

GGGTTTGGCACGGGCTGGC [CELTIC_core_42] showed a Kd ([1]; _ is abasic C3 spacer (positions 11 and 16), 5'-HEG, biotin at 5' or 3' end equivalent) of under 50 nM, a Kd ([2]; _ is abasic C3 spacer at positions 11 and 16, 5'-HEG, kinetic 277 pM (Table 8)) of 194 nM and a Kd ([4]; _ is abasic C3 spacer at positions 11 and 16, 5'-HEG) of 0.772 nM.

For GGGTTTGGCACGGGCTGGC [CELTIC_core_42t], the Kd ([2]; _ is abasic C3 spacer at positions 11 and 16, 5'-HEG, 3'-3' dT, kinetic 43 pM (Table 8)) was 176 nM and the Kd ([4]; _ is abasic C3 spacer at positions 11 and 16, 5'-HEG, 3'-3' dT) was 0.275 nM.

GGGTTTGGCATCGGGCTGGC [CELTIC_core_29] was tested, and the Kd ([2]; _ is abasic C3 spacer at position 16, 5'-HEG, kinetic 5.4 pM (Table 8)) was 205 nM and the Kd ([4]; _ is abasic C3 spacer at position 16, 5'-HEG) was 0.014 nM.
